Source: publication doi:10.1101/2024.12.25.630315 (bioRxiv, 2024)

Assays:
Nectin-4 [1] = molecular target: T1, Nectin-4 (Homo sapiens, UniProt Q96NY8); assay: [^68Ga]AJ647 binding to SCaBER cells with and without EV; conditions: SCaBER cells (Nectin-4 positive); EV 60 nM for 15 min; P<0.0001
T1 construct: host or cells: HT1376, SCaBER, T24, RT112, UC9, UC14 urothelial carcinoma cells; HT1376 xenografts in NSG mice
T1 sequence (Q96NY8 32-510): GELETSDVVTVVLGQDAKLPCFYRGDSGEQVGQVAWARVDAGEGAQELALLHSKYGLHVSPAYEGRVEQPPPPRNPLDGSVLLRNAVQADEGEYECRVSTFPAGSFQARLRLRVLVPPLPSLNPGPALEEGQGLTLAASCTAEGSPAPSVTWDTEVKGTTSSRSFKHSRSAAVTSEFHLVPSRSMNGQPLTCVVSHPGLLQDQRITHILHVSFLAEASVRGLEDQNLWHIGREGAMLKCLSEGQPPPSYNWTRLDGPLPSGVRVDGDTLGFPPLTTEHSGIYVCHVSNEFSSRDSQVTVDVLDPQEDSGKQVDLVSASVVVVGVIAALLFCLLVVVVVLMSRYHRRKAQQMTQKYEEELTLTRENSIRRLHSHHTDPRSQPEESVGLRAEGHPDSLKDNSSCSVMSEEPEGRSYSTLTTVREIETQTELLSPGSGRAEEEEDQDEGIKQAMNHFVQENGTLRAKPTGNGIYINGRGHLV

Nectin-4 [2] = molecular target: T1, Nectin-4; assay: EV dose-time Nectin-4 pharmacodynamics by [^68Ga]AJ647 PET, HT1376 tumors; format: in vivo, mouse
Protocol: Mice with tumor volume of ~100–150 mm^3 were injected with ~[…] (7.4 MBq) of [^68Ga]AJ647 in […] of 5% ethanol in saline intravenously and anesthetized under 2.5% isoflurane. PET-CT images were acquired at 60 minutes after radiotracer injection at 5 min/bed in an ARGUS small-animal PET/CT scanner (Sedecal, Madrid, Spain) as described (n=3 unless otherwise noted). PET-MR images were acquired on a simultaneous 7T Bruker PET-MR scanner. Dynamic imaging was conducted to evaluate pharmacokinetics of [^68Ga]AJ647. [^68Ga]AJ647 was injected (with help of catheter) after mice was anesthetized under 2.5% isoflurane on the equipment bed. All PET data were reconstructed using the two-dimensional ordered subsets-expectation maximization algorithm (2D-OSEM) and corrected for radioactive decay and dead time. The SUV values were calculated by finding percent of injected activity (%IA) based on a calibration factor obtained from a known radioactive quantity, then normalizing by mice weight. Amide software was used to derive SUV values by drawing region of interest to closely fit tumors. For change in accessible Nectin-4 levels following EV treatment, ΔSUV was calculated by subtracting baseline (pre-treatment) uptake from post-therapy uptake of [^68Ga]AJ647. Target engagement was quantified by normalizing this change by initial SUV in same subject controls. Image fusion, visualization, and 3D rendering were accomplished using Amira 2020.3.1® (FEI, Hillsboro, OR). The dose-time pharmacodynamics of Nectin-4 following EV treatment was studied at doses 6, 9 and 15 mpk. Experiment involving PET imaging was performed first. Male NSG mice were inoculated with 4 million HT1376 cells at day 0. On day 23 (average tumor volume=150±30 mm^3), mice were randomized to receive either saline, or a single dose of 6, 9 or 15 mpk EV intravenously (n=3 for each dose and n=2 for saline). Mice (n=2) from each dose group and saline were imaged on day 1, 3 and 6 following EV treatment. Once PET imaging results were analyzed, ex vivo distribution experiment was performed with n=16–18 for each dose and n=10 for saline. Treated mice (n=8–9 per dose per time-point) along with saline controls (n=5 per time-point) were sacrificed on day 1 and day 6. Biodistribution studies were performed at 60-minute after [68Ga]AJ647 injection as described above.

Substance: enfortumab vedotin [EV]
- effect of EV on [^68Ga]AJ647 binding (Nectin-4 [1]): significantly reduced
- Nectin-4 engagement by EV ([^68Ga]AJ647 PET tumor uptake) (Nectin-4 [2]; day 1, all EV doses (6, 9, 15 mg/kg single i.v.)): full occupancy
- Nectin-4 engagement by EV ([^68Ga]AJ647 PET tumor uptake) (Nectin-4 [2]; day 3, 6 mg/kg): increase in [^68Ga]AJ647 uptake
- Nectin-4 engagement by EV ([^68Ga]AJ647 PET tumor uptake) (Nectin-4 [2]; day 3, 9 and 15 mg/kg): sustained target engagement
- Nectin-4 engagement by EV ([^68Ga]AJ647 PET tumor uptake) (Nectin-4 [2]; day 6, 6 mg/kg): significant increase in [^68Ga]AJ647 uptake
- Nectin-4 engagement by EV ([^68Ga]AJ647 PET tumor uptake) (Nectin-4 [2]; day 6, 9 mg/kg): partial engagement
- Nectin-4 engagement by EV ([^68Ga]AJ647 PET tumor uptake) (Nectin-4 [2]; day 6, 15 mg/kg): persistent high-level engagement
